# From the RNAGym collection of RNA variant scans (doi:10.1093/molbev/msab373)
# B1: Azoarcus group I ribozyme (parent)
# chain: GUGCCUUGCGCCGGGAAACCACGCAAGGGAUGGUGUCAAAUUCGGCGAAACCUAAGCGCCCGCCCGGGCGUAUGGCAACGCCGAGCCAAGCUUCGGCGCCUGCGCCGAUGAAGGUGUAGAGACUAGACGGCACCCACCUAAGGCAAACGCUAUGGUGAAGGCAUAGUCCAGGGAGUGGCGAAAGUCACACAAACCGG
# Variants of: B1
# Assay: reverse-splicing fitness (ratio to wild type); higher = more active; in vitro selection; Mg2+ level not given
# Procedure, shortened: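 An in vitro group I ribozyme library with randomized positions was T7-transcribed and gel-purified. In triplicate, 10 pmol RNA in EPPS pH 7.5 was reacted with 50 pmoles of a 30-nt RNA substrate for 1 h at 37 °C across several added MgCl2 levels (1–48 mM), then stopped with EDTA. Products were reverse transcribed from a substrate-complementary primer, PCR-amplified and sequenced (HiSeq 4000). Fitness is a variant's read proportion after selection over that before, normalised to wild type.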
row,Variant,reverse-splicing fitness
1,A120U A145C C150G C169A U176C,0.00228
2,A120U A145C C150G C169A U176G,0.00186
3,A120U A145C C150G C169A U176A,0.00247
4,A120G A145C C169U U176C,0.19
5,A120G A145C C169U U176G,0.0181
6,A120G A145C C169U U176A,0.181
7,A120U A145C C150A U176G,0.0538
8,A120U A145C C150A U176A,0.0864
9,A120U A145C C150A U176C,0.061
10,A120G A145C C150U U176C,0.0938
11,A120G A145C C150U U176G,0.0108
12,A120G A145C C150U U176A,0.0853
13,A120G A145G C150U C169G U176C,0.216
14,A120G A145G C150U C169G U176G,0.00838
15,A120G A145G C150U C169G U176A,0.149
16,A120G A145U C169G U176C,0.264
17,A120G A145U C169G U176G,0.0156
18,A120G A145U C169G U176A,0.206
19,A120U A145C C150A C169G U176A,0.00491
20,A120U A145C C150A C169G U176G,0.00221
21,A120U A145C C150A C169G U176C,0.0032
22,A120G C169A U176A,0.112
23,A120G C169A U176G,0.00677
24,A120G C169A U176C,0.189

row,Variant,reverse-splicing fitness
1,A120G A145G C150U C169A U176A,0.0867
2,A120G A145G C150U C169A U176C,0.157
3,A120G A145G C150U C169A U176G,0.0072
4,A120G A145U C169G,0.618
5,A120G A145U C169U,0.446
6,A120G A145U C169A,0.447
7,A120U A145C C150A C169U U176A,0.00859
8,A120U A145C C150A C169U U176C,0.00371
9,A120U A145C C150A C169U U176G,0.00358
10,A120C C150U C169A U176C,0.017
11,A120C C150U C169A U176A,0.0206
12,A120C C150U C169A U176G,0.00428
13,A120G C150U C169G,0.419
14,A120G C150U C169U,0.284
15,A120G C150U C169A,0.29
16,A120G A145G C150U C169A,0.369
17,A120G A145G C150U C169U,0.37
18,A120G A145G C150U C169G,0.502
19,A120C C150G C169G,0.00811
20,A120C C150G C169U,0.0809
21,A120G A145G C150U U176C,0.212
22,A120G A145G C150U U176G,0.0181
23,A120G A145G C150U U176A,0.151
24,A120G A145U C150U C169A U176G,0.00609

row,Variant,reverse-splicing fitness
1,A120G A145U C150U C169A U176A,0.08
2,A120G A145U C150U C169A U176C,0.14
3,A120G A145U,0.508
4,A120G A145G,0.503
5,A120G A145C,0.479
6,A120U A145C C150A C169A U176C,0.00175
7,A120U A145C C150A C169A U176A,0.00216
8,A120U A145C C150A C169A U176G,0.00203
9,A120C C169A U176G,0.00454
10,A120C C169A U176C,0.0233
11,A120C C169A U176A,0.0173
12,A120C U176A,0.663
13,A120C U176G,0.244
14,A120C U176C,0.714
15,A120G A145U C150U C169G U176G,0.00892
16,A120G A145U C150U C169G U176A,0.157
17,A120G A145U C150U C169G U176C,0.207
18,A120G A145G C150A U176G,0.0109
19,A120G A145G C150A U176A,0.0568
20,A120G A145G C150A U176C,0.0809
21,A120G A145G C150A C169U,0.107
22,A120G A145G C150A C169A,0.0788
23,A120G A145G C150A C169G,0.141
24,A120G A145C C150G U176G,0.0061

row,Variant,reverse-splicing fitness
1,A120G A145C C150G U176A,0.0444
2,A120G A145C C150G U176C,0.0556
3,A120U A145C C150G C169A,0.00349
4,A120U A145C C150G C169U,0.0478
5,A120U A145C C150G C169G,0.0341
6,A120U A145C C150G,0.293
7,A120U A145C C150A,0.116
8,A120C C169G U176G,0.0039
9,A120C C169G U176C,0.0166
10,A120C C169G U176A,0.016
11,A120G A145U C169U U176G,0.0221
12,A120G A145U C169U U176A,0.174
13,A120G A145U C169U U176C,0.194
14,A120G A145C C150A C169G U176G,0.00572
15,A120G A145C C150A C169G U176A,0.0447
16,A120G A145C C150A C169G U176C,0.0391
17,A120G A145G C150G U176G,0.00816
18,A120G A145G C150G U176A,0.0423
19,A120G A145G C150G U176C,0.0592
20,A120G A145C C150A U176A,0.027
21,A120G A145C C150A U176G,0.00611
22,A120G A145C C150A U176C,0.0279
23,A120C C150G C169G U176G,0.0036
24,A120C C150G C169G U176A,0.0074

row,Variant,reverse-splicing fitness
1,A120C C150G C169G U176C,0.00463
2,A120G A145G C150U C169U U176G,0.0096
3,A120G A145G C150U C169U U176C,0.175
4,A120G A145G C150U C169U U176A,0.145
5,A120G A145C C150U C169G U176C,0.107
6,A120G A145C C150U C169G U176G,0.00726
7,A120G A145C C150U C169G U176A,0.102
8,A120G C150U,0.318
9,A120G C150A,0.0647
10,A120G C150G,0.0593
11,A120G C150A C169U U176A,0.0635
12,A120G C150A C169U U176C,0.0621
13,A120G C150A C169U U176G,0.00851
14,A120G A145U C150G C169G U176C,0.011
15,A120G A145U C150G C169G U176G,0.00487
16,A120G A145U C150G C169G U176A,0.024
17,A120G A145C C150G C169U U176A,0.0356
18,A120G A145C C150G C169U U176G,0.00576
19,A120G A145C C150G C169U U176C,0.054
20,A120G A145C C150U C169A U176C,0.0659
21,A120G A145C C150U C169A U176G,0.00586
22,A120G A145C C150U C169A U176A,0.0422
23,A120C C150G C169A U176C,0.00991
24,A120C C150G C169A U176A,0.0108

row,Variant,reverse-splicing fitness
1,A120C C150G C169A U176G,0.00553
2,A120G A145U C150A C169U U176C,0.0534
3,A120G A145U C150A C169U U176G,0.00749
4,A120G A145U C150A C169U U176A,0.0594
5,A120G C150G U176G,0.00499
6,A120G C150G U176C,0.0392
7,A120G C150G U176A,0.0287
8,A120G A145G C169G U176A,0.221
9,A120G A145G C169G U176G,0.0103
10,A120G A145G C169G U176C,0.268
11,A120G A145U U176A,0.197
12,A120G A145U U176G,0.0162
13,A120G A145U U176C,0.269
14,A120G C150A C169A U176A,0.0363
15,A120G C150A C169A U176G,0.00569
16,A120G C150A C169A U176C,0.0393
17,A120G A145C C150G C169G U176A,0.0244
18,A120G A145C C150G C169G U176G,0.00456
19,A120G A145C C150G C169G U176C,0.0117
20,A120G C169G U176G,0.0117
21,A120G C169G U176C,0.261
22,A120G C169G U176A,0.209
23,A120C C150U U176A,0.643
24,A120C C150U U176G,0.181

row,Variant,reverse-splicing fitness
1,A120C C150U U176C,0.596
2,A120G C150G C169A U176A,0.0128
3,A120G C150G C169A U176C,0.0257
4,A120G C150G C169A U176G,0.0055
5,A120C C150U C169U,0.345
6,A120C C150U C169G,0.0172
7,A120C C150U C169A,0.0269
8,A120U A145C,0.787
9,A120G C150G C169U U176C,0.0422
10,A120G C150G C169U U176G,0.00662
11,A120G C150G C169U U176A,0.0245
12,A120G A145U C150A,0.0603
13,A120G A145U C150U,0.384
14,A120G A145U C150G,0.07
15,A120C C169U U176A,0.155
16,A120C C169U U176G,0.0174
17,A120C C169U U176C,0.174
18,A120G A145C C150G C169A U176A,0.016
19,A120G A145C C150G C169A U176G,0.00448
20,A120G A145C C150G C169A U176C,0.031
21,A120G C150G C169A,0.0439
22,A120G C150G C169G,0.0731
23,A120G C150G C169U,0.0614
